± gives the uncertainty stated by the source.
B1: Transcriptional regulator ERG, residues 117 to 197; numbered along this chain, P11308 (parent)
chain: NMTTNERRVIVPADPTLWSTDHVRQWLEWAVKEYGLPDVNILLFQNIDGKELCKMTKDDFQRLTPSYNADILLSHLHYLRE

Variants of: B1
Assay: abundance fitness (aPCA) (normalised: wild type 0, dead -1); higher = more abundant; growth selection in yeast, the domain comes from the species named
Conditions: Homo sapiens
In the case of G49I, the abundance fitness is reported as -1.4 ± 0.5. A13N showed an abundance fitness of 0.06 ± 0.088. For R8T, the abundance fitness was -0.022 ± 0.053. In the case of R24F, the abundance fitness is reported as -0.218 ± 0.14. D21G gave an abundance fitness of -0.032 ± 0.032. Variant D21Q has an abundance fitness of -0.087 ± 0.051. V31H showed an abundance fitness of -0.14 ± 0.1. E33K showed an abundance fitness of 0.029 ± 0.058. In the case of V23I, the abundance fitness is reported as -0.5 ± 0.13. Work on C53A yielded an abundance fitness of -0.132 ± 0.048. With H77Q the abundance fitness was -0.098 ± 0.1. W26Q gave an abundance fitness of -0.811 ± 0.19. L72I gave an abundance fitness of -0.199 ± 0.34. R8G gave an abundance fitness of -0.207 ± 0.067. With T20S the abundance fitness was -0.053 ± 0.047. Work on R8S yielded an abundance fitness of -0.117 ± 0.052. Variant N68C has an abundance fitness of -0.212 ± 0.1. Work on I41F yielded an abundance fitness of 0 ± 0.076. Variant K54G has an abundance fitness of -0.028 ± 0.037. In the case of L79G, the abundance fitness is reported as -0.195 ± 0.052. For E33S, the abundance fitness was -0.035 ± 0.049. V31Q showed an abundance fitness of -0.086 ± 0.064. I71P gave an abundance fitness of 0.06 ± 0.084. With T64A the abundance fitness was -0.034 ± 0.053. H77R showed an abundance fitness of 0.052 ± 0.05. G49F gave an abundance fitness of -0.816 ± 0.18. E28P showed an abundance fitness of -0.534 ± 0.13. With Q25N the abundance fitness was -0.214 ± 0.076. Variant R62Q has an abundance fitness of 0.067 ± 0.11. Work on D38M yielded an abundance fitness of -0.317 ± 0.067. S19R showed an abundance fitness of -0.145 ± 0.036. Variant R8H has an abundance fitness of -0.098 ± 0.073. In the case of P12D, the abundance fitness is reported as -0.042 ± 0.064. In the case of E28D, the abundance fitness is reported as -0.146 ± 0.091. With P65C the abundance fitness was 0.051 ± 0.087. With N40I the abundance fitness was -0.317 ± 0.094. Work on K57M yielded an abundance fitness of -0.165 ± 0.084. In the case of L43D, the abundance fitness is reported as -0.006 ± 0.059. In the case of T4Y, the abundance fitness is reported as -0.04 ± 0.078. For E6C, the abundance fitness was -0.242 ± 0.058. Variant G35V has an abundance fitness of -0.05 ± 0.035. K54T gave an abundance fitness of -0.094 ± 0.084. For P65Q, the abundance fitness was -0.265 ± 0.12. S19Q showed an abundance fitness of -0.235 ± 0.07. For K57Q, the abundance fitness was -0.159 ± 0.11. Variant V11Q has an abundance fitness of -0.017 ± 0.054. For S66T, the abundance fitness was -0.12 ± 0.098. For Q45S, the abundance fitness was -0.005 ± 0.046. In the case of F60S, the abundance fitness is reported as -0.536 ± 0.15. D48N showed an abundance fitness of 0.022 ± 0.087. With Y67D the abundance fitness was 0.199 ± 0.096. L72R gave an abundance fitness of -0.714 ± 0.077. D58C gave an abundance fitness of -0.134 ± 0.092. For K50P, the abundance fitness was -0.011 ± 0.054. H75W showed an abundance fitness of -1 ± 0.3. R8M gave an abundance fitness of -0.263 ± 0.083. R8K showed an abundance fitness of 0.104 ± 0.064. For N68K, the abundance fitness was -0.266 ± 0.08. Variant I41S has an abundance fitness of -0.128 ± 0.048. K50C showed an abundance fitness of 0.015 ± 0.059. In the case of K32R, the abundance fitness is reported as -0.052 ± 0.035. With W18R the abundance fitness was -0.785 ± 0.07. Work on Y78V yielded an abundance fitness of 0.071 ± 0.065. R62D gave an abundance fitness of 0.02 ± 0.067. For K32Q, the abundance fitness was -0.109 ± 0.063. With E81W the abundance fitness was -0.32 ± 0.086. N40R gave an abundance fitness of -0.255 ± 0.039. In the case of L52C, the abundance fitness is reported as -0.928 ± 0.22. For N5P, the abundance fitness was -0.092 ± 0.058. Work on L36G yielded an abundance fitness of -0.563 ± 0.047. Work on A69Q yielded an abundance fitness of -0.564 ± 0.49. Variant N5I has an abundance fitness of 0.036 ± 0.092. For D59T, the abundance fitness was 0.059 ± 0.13. For P12G, the abundance fitness was -0.136 ± 0.033. In the case of A30P, the abundance fitness is reported as -0.956 ± 0.2. For V9S, the abundance fitness was 0.137 ± 0.036. In the case of H75Q, the abundance fitness is reported as 0.038 ± 0.11. L27N showed an abundance fitness of -1.02 ± 0.29. P15S showed an abundance fitness of -0.611 ± 0.076. In the case of A13G, the abundance fitness is reported as 0.061 ± 0.037. Work on D59E yielded an abundance fitness of -0.09 ± 0.075. A69V gave an abundance fitness of -0.039 ± 0.057. For L27K, the abundance fitness was -0.623 ± 0.12.

Source: the Human Domainome abundance scans (Beltran et al. 2025)
